Source: US20080166343A1 (CSL, published 2008)

Experiments:
[1] = molecular target: T1, human IL-13Rα1 on cells (NHDF cells; cells of whole human blood) (human, UniProt P78552 27-427); assay: cell-based or functional assay
T1 sequence: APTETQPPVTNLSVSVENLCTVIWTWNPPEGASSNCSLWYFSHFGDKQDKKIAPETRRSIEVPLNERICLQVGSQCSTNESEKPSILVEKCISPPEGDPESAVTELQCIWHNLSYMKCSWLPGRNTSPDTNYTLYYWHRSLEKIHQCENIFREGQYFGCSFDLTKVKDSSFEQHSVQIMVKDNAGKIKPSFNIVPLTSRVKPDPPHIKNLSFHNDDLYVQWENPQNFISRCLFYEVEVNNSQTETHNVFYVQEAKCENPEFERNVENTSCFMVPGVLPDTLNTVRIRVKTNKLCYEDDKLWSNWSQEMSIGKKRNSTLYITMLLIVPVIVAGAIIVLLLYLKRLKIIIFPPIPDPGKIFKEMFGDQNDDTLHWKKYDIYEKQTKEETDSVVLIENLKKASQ

[2] = molecular target: T1, human IL-13Rα1 on cells (NHDF cells; …); assay: cell-based or functional assay; remark: listed apart in the source

B1: 10G5-3 (antibody, human IgG4 S228P, kappa, V domains shown)
VH: EVQLVQSGAEVKKPGESLKISCKGSGYSFTSYWIGWVRQMPGKGLEWMGVIYPGDSYTRYSPSFQGQVTISADKSISTAYLQWSSLKASDTAMYYCARMPNWGSFDYWGQGTLVTVSS
VL: EIVLTQSPGTLSLSPGERATLSCRASQSISSSYLAWYQQKPGQAPRLLIYGASSRATGIPDRFSGSGSGTDFTLTISRLEPEDFAVYYCQQYEAFGQGTKVEIKR
Question: For B1, which “EC50, inhibition of eotaxin release from NHDF cells upon stimulation by IL-13” value [1] is on record?
Answer: 0.614 µg/mL

Question: What about the “EC50, inhibition of eotaxin release from NHDF cells upon stimulation by IL-4” value [2] of the same binder?
Answer: 0.983 µg/mL
